In paper PMC8304084, “A Concerted Action of UBA5 C-Terminal Unstructured Regions Is Important for Transfer of Activated UFM1 to UFC1” (International Journal of Molecular Sciences, 2021):
“Also recorded” adds a separate entry of the source. Where no end group is shown, it is not given here.

Experiments:
UFC1 [1] = target: T1, UFC1 (Homo sapiens, UniProt Q9Y3C8); assay: In vitro thioester formation (ufmylation) assay, UFC1~UFM1 conjugate; type: biochemical; details: for effect on UFC1~UFM1 conjugation (in words): 1 mM ATP, 22 °C, peptides added to UBA5 AD^1–330 where applicable; for UFC1~UFM1 conjugate fraction (in words): ATP reduced to 25 µM, compared to wild type peptide
T1 construct: Full length UFC1, residues 1–167; modified ubiquitin tag (Ub19) with TEV site (N, cleaved yes); made in house; host or cells: E. coli T7 Express
T1 sequence (Q9Y3C8 1-167): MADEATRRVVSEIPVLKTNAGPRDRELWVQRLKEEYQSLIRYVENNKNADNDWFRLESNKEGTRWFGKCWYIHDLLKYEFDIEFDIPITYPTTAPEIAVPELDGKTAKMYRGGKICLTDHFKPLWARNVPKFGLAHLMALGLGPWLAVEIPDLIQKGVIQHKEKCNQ
Method: First, we analyzed the effect of the UBA5 C-terminus on UFM1 transfer to UFC1 with an in vitro thioester formation assay (Figure 1B–E).
Ufmylation reaction assays were adopted from work of Xie. Briefly, 70 µM UFM1, 20 µM UFC1 and 20 µM of different UBA5 constructs were mixed in reaction buffer (50 mM HEPES pH = 7.5, 100 mM NaCl, 5 mM MgCl2). After starting the reaction with addition of 1 mM ATP, the reaction mix was incubated at 22 °C for the desired time. To quench the reaction and prepare electrophoretic samples, 1 µL of the reaction mix was added to 99 µL 1x non-reducing SDS loading buffer and frozen in liquid nitrogen. Sample content was visualized by sodium dodecyl sulfate polyacrylamide gel electrophoresis (SDS-PAGE). The transfer to polyvinylidene difluoride (PVDF) membrane was performed via a Trans-Blot® Turbo™ Transfer System (Bio-Rad, München, Germany). After transfer the membrane was blocked with TBST (Tris-buffered saline with Tween20 buffer, 20 mM Tris, 150 mM NaCl and 0.1% TWEEN 20) containing 5% w/v nonfat dry milk for 1 h, followed by α-UFC1 antibody incubation over night at 4 °C (ab189251 abcam, 1:10,000 in TBST containing 5% w/v nonfat dry milk). After washing with TBST the membrane was incubated with secondary antibody (anti-rabbit-HRP) for 1 h at RT and again washed with TBST. Detection was performed by addition of ECL solution. For quantification of UFC1 ufmylation coloc2 software implemented in ImageJ was used.

UFC1 [2] = target: T1, UFC1; assay: ITC, UBA5 constructs vs UFC1; type: binding; details: for Kd / ΔG / −T*ΔS / ΔS / KA*10^−6 / ΔH: ITC, 25 °C; for Kd / ΔH: VP-ITC, peptide ~400 µM titrated into 20–25 µM UFC1, 25 mM HEPES pH 7.5, 100 mM NaCl, single ITC profile; for Kd / ΔS / ΔH: one-site model; for N: ITC stoichiometry; for N / ΔG / −T*ΔS / ΔS / KA*10^−6: peptide vs UFC1; for N / KA*10^−6 / ΔH: ± = fitting error; for ΔS: single profile; for KA*10^−6: value is KA × 10^−6
Source text: (§1) To understand how the UBA5 C-terminus participates in the ufmylation cascade, we performed isothermal titration calorimetry (ITC) experiments, in which we titrated UBA5 C-terminal peptides (see Table 1) to the UBA5 AD, UFC1, UFM1 and representative LC3/GABARAP proteins (Figure 2A, Supplementary Figure S2A–D and Table 2).
To investigate if conjugation of UFM1 to the UBA5 catalytic cysteine (C250) affects the UFC1:UBA5 interactions, we prepared full length UBA5 C250K mutant and stably conjugated UFM1 to it as reported before for a number of ubiquitin-specific E2 enzymes. We compared the UFC1 spectra after addition of a twofold molar excess of FL^1–404 and FL^1–404 C250K~UFM1 constructs (Supplementary Figure S5C).
(§2) All proteins and peptides were expressed in E.Coli T7 Express (New England Biolabs GmbH, Frankfurt, Germany) cells in LB or M9 (to obtain ^15N- and ^13C,^15N-labeled polypeptides) media according to the protocol described in [33, 36]. For protein purification, bacterial cell pellets were resuspended in lysis buffer (50 mM Tris-HCl pH = 7.5, 100 mM NaCl, 5% glycerol, 5 mM PIC (protease inhibitor cocktail)) and lysed via sonication (TT13 Sonotrode, 40% amplitude, for 6 × 1 min with a 0.5/0.5-s pulse). Lysates were centrifuged for 45 min at 17,000× g at 4 °C. Supernatants were loaded onto a His Trap Fast Flow 5 mL column (GE Healthcare, München, Germany) equilibrated in loading buffer (50 mM Tris-HCl pH = 8.0, 250 mM NaCl, 1% glycerol, 20 mM imidazole). The column was washed with loading buffer for 5–10 CV and protein was eluted with elution buffer (50 mM Tris-HCl pH = 8, 250 mM NaCl, 1% glycerol, 400 mM imidazole). Simultaneous TEV cleavage (1 mg TEV protease was added to 100 mg peptides/proteins) and buffer exchange to loading buffer via dialysis was performed over night at 4 °C. After reverse IMAC, proteins were concentrated with conical concentrators (Millipore Merck, Darmstadt, Germany) and loaded on a Superdex 10/60 75 or 200 column (GE Healthcare, München, Germany) for further purification and equilibration with ITC/NMR buffer (25 mM HEPES pH = 7.5, 100 mM NaCl). For structural NMR spectroscopy, buffer containing 50 mM Tris-HCl pH = 7.5, 100 mM NaCl was used. Prior to NMR experiments, TCEP and protease inhibitors cocktail were added to the samples to final concentrations 1 and 5 mM, respectively. Purified peptides and protein were concentrated and stored at −80 °C. The protein and peptide concentrations were calculated from the UV absorption at 280 nm by Nanodrop spectrophotometer (Thermo Scientific, Langenselbold, Germany).
(§3) All ITC experiments were performed at 25 °C using a VP-ITC microcalorimeter (Malvern Panalytical Ltd., Malvern, UK). Peptides in concentration of ~400 µM were titrated into 20–25 µM solutions of corresponding binding partner at a stirring speed of 307 rpm. The raw data were corrected on the dilution heat of peptides obtained in independent experiment (titration of the peptide in syringe into the ITC/NMR buffer in the measuring cell). Pre-titration delay was set to 180 s, interval between titration steps was experimentally adjusted to avoid kinetic contribution to the observed heat effects and set to 200 s. A single ITC profile was collected for each type of interaction. The ITC data were analyzed based on a “one-site” binding model with MicroCal ITC software implemented in Origin 7.0.

UFM1 = target: T2, UFM1 (Homo sapiens, UniProt P61960); assay: ITC, UBA5 peptides vs UFM1; type: binding; details: 25 °C; for ΔG / −T*ΔS: vs UFM1; for ΔS: vs UFM1, one-site model, single profile; for KA*10^−6: vs UFM1, value is KA × 10^−6, ± = fitting error
T2 construct: Full length UFM1, residues 2–83; modified ubiquitin tag (Ub19) with TEV site (N, cleaved yes); made in house; host or cells: E. coli T7 Express
T2 sequence (P61960 2-83): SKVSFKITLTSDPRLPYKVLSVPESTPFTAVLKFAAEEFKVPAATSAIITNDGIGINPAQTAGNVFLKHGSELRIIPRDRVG
Source text: as §1, §2, §3

GABARAPL2 = target: T3, GABARAPL2 (Homo sapiens, UniProt P60520); assay: ITC, UBA5 peptides vs GABARAPL2; type: binding; details: for affinity increase to GABARAPL2 vs wild type peptide / ΔG / ΔS / −T*ΔS / KA*10^−6: 25 °C; for ΔG / ΔS / −T*ΔS: vs GABARAPL2; for KA*10^−6: vs GABARAPL2, value is KA × 10^−6, ± = fitting error; for affinity change, GABARAPL2: A371 mutants of R1-R2-R3^325–404
T3 construct: modified ubiquitin tag (Ub19) with TEV site (N, cleaved yes); made in house; host or cells: E. coli T7 Express
T3 sequence (P60520 3-116): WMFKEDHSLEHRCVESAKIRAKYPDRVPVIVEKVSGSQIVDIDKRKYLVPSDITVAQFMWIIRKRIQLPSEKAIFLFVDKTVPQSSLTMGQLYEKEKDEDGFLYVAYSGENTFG
Source text: as §1, §2, §3

LC3B = target: T4, LC3B (Homo sapiens, UniProt Q9GZQ8); assay: ITC, UBA5 peptides vs LC3B; type: binding; details: for affinity increase to LC3B vs wild type peptide / ΔG / ΔS / −T*ΔS / KA*10^−6: 25 °C; for ΔG / ΔS / −T*ΔS / KA*10^−6: vs LC3B; for KA*10^−6: value is KA × 10^−6, ± = fitting error; for affinity change, LC3B: A371 mutants of R1-R2-R3^325–404
T4 construct: LC3B, residues 5–120; ubiquitin tag Ub3 (vector pETm60_Ub3) (cleaved yes); made in house; host or cells: E. coli T7 Express
Source text: as §1, §2, §3

UFC1 [3] = target: T1, UFC1; assay: NMR titration with UFC1; type: binding; details: [15N,1H] TROSY-HSQC, 25 °C
Method: To understand the role of the UBA5 C-terminal region in coordination of the binding events reported above on the molecular level, we performed NMR titration experiments. […] It seems, that these UBA5 residues form additional interactions with UFC1.
All NMR experiments were performed at a sample temperature of 25 °C on Bruker 600, 700, 800, 900, and 950 MHz spectrometers equipped with cryogenic probes, and a 500 MHz spectrometer equipped with a room-temperature triple-resonance probe. All NMR spectra were analyzed with the Sparky 3.114 software (University of California, San Francisco, USA). For NMR titration experiments, the non-labeled UBA5 peptides were titrated to 100 µM ^13C,^15N-labeled UFC1 to a final molar ratio of 1:8 (UFC1:UBA5 peptide). Conversely, 100 µM ^13C,^15N-labeled UBA5 peptides were titrated with non-labeled UFC1 to a final molar ratio 1:4 (UBA5 peptide:UFC1). 2D ^1H-^15N correlation spectra ([^15N,^1H] TROSY-HSQC) were recorded at each titration point. The same types of spectra were recorded to estimate binding of ^13C,^15N-labeled UFC1 (75 µM) to non-labeled UBA5, UBA5~UFM1 and UFM1 at 1:2 molar ratios. CSP values, Δδ, were calculated for each individual amide group using the formula Δδ = [(ΔδN/5)^2 + Δδ^2HN)]^1/2.

## GABARAPL2: GABARAPL2, residues 3–116
UFC1 [1]; high concentration of GABARAPL2 added to ufmylation assay
  effect of GABARAPL2 on UFC1~UFM1 conjugation: could efficiently prohibit the UFC1~UFM1 conjugation

## GAMEDSGESLEDLMAKMKNM [R3^388–404]
UFC1 [2]
  Kd: 10000 nM

## GAMGPVPDLPEGITVAYTIPKKQEDSVTELTVEDSGESLEDLMAKMKNM [R2-R3^359–404]
UFC1 [2]
  Kd: 2700 nM

## H-GAMGPVPDLPEGITVAYTIPK-OH [R2^359–376]
UFC1 [2]; ITC and NMR titration, listed as R2
  interaction / affinity to UFC1 (in words): no direct interactions; also recorded: does not interact with UFC1
UFC1 [1]
  effect on UFC1~UFM1 conjugation (in words): virtually no effect

## R1-R2-R3^325–404 A371E: UBA5 C-terminal part with A371E mutant (res. 325–404)
UFM1
  ΔG: -6.86 kcal/mol
  −T*ΔS: 4.56 kcal/mol
  ΔS: −15.3 cal mol^−1 K^−1
  KA*10^−6: 0.11 ± 0.01 M^−1
UFC1 [2]
  N: 1.03 ± 0.005
  ΔG: -7.88 kcal/mol
  −T*ΔS: -0.11 kcal/mol
  ΔS: 0.36 cal mol^−1 K^−1
  KA*10^−6: 0.60 ± 0.02 M^−1
  Kd: 1600 nM
  ΔH: -7.78 ± 0.05 kcal/mol
GABARAPL2
  affinity increase to GABARAPL2 vs wild type peptide: ~ 3 fold
  ΔG: -9.95 kcal/mol
  ΔS: 7.23 cal mol^−1 K^−1
  −T*ΔS: -2.16 kcal/mol
  KA*10^−6: 19.60 ± 2.57 M^−1
  affinity change, GABARAPL2: some increase in affinity
LC3B
  affinity increase to LC3B vs wild type peptide: ~ 7 fold
  ΔG: -8.49 kcal/mol
  ΔS: 15.3 cal mol^−1 K^−1
  −T*ΔS: -4.56 kcal/mol
  KA*10^−6: 1.66 ± 0.12 M^−1
  affinity change, LC3B: some increase in affinity
UFC1 [1]
  effect on UFC1~UFM1 conjugation (in words): nearly the same trans-thioesterification efficiency compared to wild type
  UFC1~UFM1 conjugate fraction (in words): reduction of the UFC1~UFM1 conjugate fraction
UFC1 [1]; listed as A371E
  effect on UFC1~UFM1 conjugation (in words): did not affect significantly the formation of the UFC1~UFM1 conjugate

## R1-R2-R3^325–404 A371T: UBA5 C-terminal part with A371T mutant (res. 325–404)
UFM1
  ΔG: -7.02 kcal/mol
  −T*ΔS: 3.96 kcal/mol
  ΔS: −13.3 cal mol^−1 K^−1
  KA*10^−6: 0.14 ± 0.01 M^−1
UFC1 [2]
  N: 1.03 ± 0.008
  ΔG: -7.82 kcal/mol
  −T*ΔS: 0.06 kcal/mol
  ΔS: −0.19 cal mol^−1 K^−1
  KA*10^−6: 0.54 ± 0.03 M^−1
  Kd: 1800 nM
  ΔH: -7.88 ± 0.08 kcal/mol
GABARAPL2
  affinity increase to GABARAPL2 vs wild type peptide: ~ 3 fold
  ΔG: -9.89 kcal/mol
  ΔS: 7.76 cal mol^−1 K^−1
  −T*ΔS: -2.31 kcal/mol
  KA*10^−6: 17.90 ± 3.75 M^−1
  affinity change, GABARAPL2: some increase in affinity
LC3B
  affinity increase to LC3B vs wild type peptide: ~ 3 fold
  ΔG: -8.02 kcal/mol
  ΔS: 14.3 cal mol^−1 K^−1
  −T*ΔS: -4.26 kcal/mol
  KA*10^−6: 0.76 ± 0.04 M^−1
  affinity change, LC3B: some increase in affinity
UFC1 [1]
  effect on UFC1~UFM1 conjugation (in words): nearly the same trans-thioesterification efficiency compared to wild type
  UFC1~UFM1 conjugate fraction (in words): reduction of the UFC1~UFM1 conjugate fraction
UFC1 [1]; listed as A371T
  effect on UFC1~UFM1 conjugation (in words): did not affect significantly the formation of the UFC1~UFM1 conjugate

## ΔR3^1–380: UBA5 with deleted R3 region, residues 1–380
UFC1 [1]; reactions started with 25 µM ATP
  UFM1 transfer to UFC1, ΔR3^1–380 vs FL^1–404 (in words): significantly slowed down UFM1 transfer to UFC1
UFC1 [3]
  interaction with UFC1 (in words): did not interact with UFC1
